Source: article PMC5655142, “Anti-diabetic drug binding site in a mammalian KATP channel revealed by Cryo-EM” (eLife, 2017)

Biological target: the molecule itself
Assay: cryo-EM structure; purified SUR1/Kir6.2 KATP channel in digitonin, 1 mM ATP (no Mg2+) and 1 µM glibenclamide; C4 symmetry imposed; 3.63 Å

B1: rat Kir6.2 (natural protein)
chain: MLSRKGIIPEEYVLTRLAEDPTEPRYRTRERRARFVSKKGNCNVAHKNIREQGRFLQDVFTTLVDLKWPHTLLIFTMSFLCSWLLFAMVWWLIAFAHGDLAPGEGTNVPCVTSIHSFSSAFLFSIEVQVTIGFGGRMVTEECPLAILILIVQNIVGLMINAIMLGCIFMKTAQAHRRAETLIFSKHAVITLRHGRLCFMLRVGDLRKSMIISATIHMQVVRKTTSPEGEVVPLHQVDIPMENGVGGNSIFLVAPLIIYHVIDSNSPLYDLAPSDLHHHQDLEIIVILEGVVETTGITTQARTSYLADEILWGQRFVPIVAEEDGRYSVDYSKFGNTVKVPTPLCTARQLDEDRSLLDALTLASSRGPLRKRSVAVAKAKPKFSISPDSLS
notes: the final model holds residues 32-352, the distal N- and C-termini were not seen in the map; source: INS-1 clone 832/13 cells, infected with recombinant adenovirus, co-expressed with FLAG-SUR1; purified as the channel complex (digitonin, anti-FLAG M2 agarose, FLAG peptide elution)
stoichiometry N: 4
